Molecular target: T1, GST-tagged 14-3-3γ (UniProt P61981 1-247)
T1 construct: 14-3-3γ, in the bacterial expression vector pGEX-4T3; Held on glutathione sepharose 4B as bait; also called GST-14-3-3γ; GST-14-3-3
T1 sequence (looked up): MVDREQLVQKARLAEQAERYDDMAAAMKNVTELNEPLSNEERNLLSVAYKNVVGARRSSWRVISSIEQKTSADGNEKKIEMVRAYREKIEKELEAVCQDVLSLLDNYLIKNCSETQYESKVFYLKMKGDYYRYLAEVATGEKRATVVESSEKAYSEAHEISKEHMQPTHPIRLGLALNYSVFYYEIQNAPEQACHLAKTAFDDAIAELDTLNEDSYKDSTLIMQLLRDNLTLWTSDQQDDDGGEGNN
Assay: pull-down; glutathione sepharose 4B saturated with purified GST-14-3-3γ, incubated with lysates of transfected HEK293T cells; cells without or with 10 µM forskolin (time course or 15 min), RGS18 alone or co-expressed with myc-spinophilin and/or VSV-PP1 catalytic subunit; precipitates blotted with anti-RGS18 or anti-FLAG
Settings: one partner purified

B1: FLAG-tagged RGS18 (wild type) (natural protein, human, UniProt Q9NS28 1-235, looked up)
chain: METTLLFFSQINMCESKEKTFFKLIHGSGKEETSKEAKIRAKEKRNRLSLLVQKPEFHEDTRSSRSGHLAKETRVSPEEAVKWGESFDKLLSHRDGLEAFTRFLKTEFSEENIEFWIACEDFKKSKGPQQIHLKAKAIYEKFIQTDAPKEVNLDFHTKEVITNSITQPTLHSFDAAQSRVYQLMEQDSYTRFLKSDIYLDLMEGRPQRPTNLRRRSRSFTCNEFQDVQSDVAIWL
modifications: phosphoserine at S218 present in the basal state; phosphoserine at S49 (s3 band); phosphoserine at S216 after forskolin
notes: Regulator of G-protein signaling 18 (RGS18), 235 amino acids, in pcDNA4/TO; also called wt RGS18; wt-RGS18; source: HEK293T, transfected, in lysate
fold reduction of binding by forskolin against non-treated cells (cells expressing RGS18, spinophilin and PP1): 21 fold
fold reduction of binding by forskolin against non-treated cells (cells expressing RGS18 alone): 2.6 fold
fold reduction of binding by forskolin against non-treated cells (cells expressing RGS18 and PP1): 25 fold
fold reduction of binding by forskolin against non-treated cells (cells expressing RGS18 and spinophilin): 3.7 fold

— PMC3820651, “Cyclic Nucleotide Dependent Dephosphorylation of Regulator of G-Protein Signaling 18 in Human Platelets” (PLoS ONE, 2013)
